From patent US20230277625A1 (SIMCHA IL 18, published 2023)

Columns and labels:
[1] = target: T1, Human IL-18BP (amino acids 31-194), biotinylated (human, UniProt O95998 31-194, biotin on the AviTag (BirA ligase) where used biotinylated); test: SPR; average of 2 studies; SPR, average of 2 studies
T1 construct: Soluble decoy receptor; also called hIL-18BP; recombinant IL-18BP
T1 sequence: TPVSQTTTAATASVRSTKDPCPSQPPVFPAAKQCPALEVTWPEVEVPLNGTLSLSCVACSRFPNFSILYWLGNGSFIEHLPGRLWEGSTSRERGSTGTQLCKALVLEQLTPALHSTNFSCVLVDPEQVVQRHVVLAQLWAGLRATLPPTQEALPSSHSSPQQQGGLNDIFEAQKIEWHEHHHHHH

[2] = target: T1, Human IL-18BP (amino acids 31-194), …; test: SPR; KD ratio relative to WT IL-18; SPR; ratio normalized to WT
Method: (§1) Experiments were conducted using a Biacore T100 and carried out at 25° C. Biotinylated IL-18Rα or IL-18BP were immobilized onto a Biacore biotin capture chip (Series S CAP sensor chip, GE Healthcare) to yield an Rmax of ˜50 RU (IL-18Rα) or ˜10 RU (IL-18BP). Measurements were made with serial dilutions of the IL-18 variants in HEPES buffered Saline-P+buffer (10 mM HEPES pH 7.4, 150 mM NaCl, 0.005% surfactant P20). The surface was regenerated by three 60-sec injections of regeneration buffer (3/4 (v/v) 8M guanidine hydrochloride with 1/4 (v/v) 1M sodium hydroxide). Experiments were performed in multiple channels simultaneously for increased observations. All data were analyzed with the Biacore T100 evaluation software version 2.0 with a 1:1 Langmuir binding model.
(§2) To additionally characterize the receptor binding activities of the DR-IL-18 variants, the cytokines were expressed recombinantly and surface plasmon resonance for IL-18Rα and IL-18BP was performed (see FIG. 5B for representative traces).

[3] = target: T1, Human IL-18BP (amino acids 31-194), …; test: SPR; KD(IL-18BP)/KD(IL-18Rα) normalized to WT IL-18
[4] = target: T1, Human IL-18BP (amino acids 31-194), …; test: SPR (Biacore T100), IL-18BP captured via biotin, IL-18 as analyte; SPR, recombinant soluble variant, biotinylated hIL-18BP on the chip
Method: as §1, §2

[5] = target: T1, Human IL-18BP (amino acids 31-194), …; test: SPR; KD for IL-18BP over KD for IL-18Rα; SPR; ratio of two measured KD
Method: as §1, §2

[6] = target: T1, Human IL-18BP (amino acids 31-194), …; test: on-yeast binding isotherms; KD ratio relative to WT IL-18; yeast-displayed variant; ratio normalized to WT, from the 20 µM placeholder
[7] = target: T1, Human IL-18BP (amino acids 31-194), …; test: on-yeast binding isotherm (flow cytometry); members per FIG. 5A legend
Method: (§3) Individual colonies of IL-18 yeast were grown overnight at 30° C. in SDCAA liquid media and induced in SGCAA liquid media for 1 day at 20° C. IL-18 display levels on yeast were verified by flow cytometry using an anti-cMyc tag antibody (anti-myc-PE; Cell Signaling Technologies). Receptor staining with biotinylated IL-18Rα (with or without IL-18R β) or biotinylated IL-18BP was performed in PBS supplemented with 0.5% BSA and 2 mM EDTA (PBE) on ice. All analysis was performed on a Sony SA3800 flow cytometer.
as §2

[8] = target: T2, Human IL-18Rα ectodomain (amino acids 19-329), biotinylated (human, UniProt Q13478 19-329, biotin on the AviTag (BirA ligase)); test: SPR (Biacore T100), receptor captured via biotin, IL-18 as analyte
T2 construct: range 19-329; Secreted from insect cells (gp67 signal peptide removed); also called hIL-18Rα; hIL18Rα
T2 sequence: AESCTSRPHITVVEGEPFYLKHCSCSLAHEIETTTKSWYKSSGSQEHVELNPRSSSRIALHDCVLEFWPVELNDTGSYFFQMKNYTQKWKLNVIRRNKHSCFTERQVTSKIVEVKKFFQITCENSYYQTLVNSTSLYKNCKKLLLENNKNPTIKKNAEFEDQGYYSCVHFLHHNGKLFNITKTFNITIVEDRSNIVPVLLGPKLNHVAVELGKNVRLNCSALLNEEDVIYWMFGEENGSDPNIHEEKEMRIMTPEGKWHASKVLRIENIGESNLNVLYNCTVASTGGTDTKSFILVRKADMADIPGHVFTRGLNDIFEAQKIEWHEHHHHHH
Method: as §1, §2

[9] = target: T2, Human IL-18Rα ectodomain (amino acids …); test: SPR; average of 2 studies
[10] = target: T1, Human IL-18BP (amino acids 31-194), …; test: on-yeast binding isotherms; 20 µM used for NBD; yeast-displayed variant; ratio computed with 20 µM put in for NBD
[11] = target: T3, Mouse IL-18BP (amino acids 31-194), biotinylated (mouse, UniProt Q9Z0M9 29-193, biotin on the AviTag (BirA ligase)); test: SPR; KD(IL-18BP)/KD(IL-18Rα) normalized to WT IL-18
T3 construct: also called mIL-18BP
T3 sequence: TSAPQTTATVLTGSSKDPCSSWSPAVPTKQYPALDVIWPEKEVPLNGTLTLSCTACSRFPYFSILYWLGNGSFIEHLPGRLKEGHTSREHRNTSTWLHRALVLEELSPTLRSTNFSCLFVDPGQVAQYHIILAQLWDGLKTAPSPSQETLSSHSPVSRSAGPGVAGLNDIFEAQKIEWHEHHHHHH

[12] = target: T3, Mouse IL-18BP (amino acids 31-194), …; test: SPR
[13] = target: T4, Mouse IL-18Rα ectodomain (amino acids 19-329), biotinylated (mouse, UniProt Q61098 19-329, biotin on the AviTag (BirA ligase)); test: SPR
T4 construct: range 19-329; Secreted from Expi293 cells (H7 signal peptide removed); also called mIL-18Rα; mIL18Ra
T4 sequence: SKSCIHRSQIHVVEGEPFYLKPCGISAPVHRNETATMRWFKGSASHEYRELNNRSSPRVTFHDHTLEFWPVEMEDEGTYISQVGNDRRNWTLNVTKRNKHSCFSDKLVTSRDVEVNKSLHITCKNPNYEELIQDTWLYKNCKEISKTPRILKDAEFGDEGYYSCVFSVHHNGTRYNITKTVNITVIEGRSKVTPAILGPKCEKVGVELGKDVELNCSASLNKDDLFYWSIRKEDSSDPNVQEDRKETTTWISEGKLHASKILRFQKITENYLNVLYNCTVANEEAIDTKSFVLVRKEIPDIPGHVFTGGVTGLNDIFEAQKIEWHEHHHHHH

[14] = target: T3, Mouse IL-18BP (amino acids 31-194), …; test: SPR, immobilized biotinylated mIL-18BP, representative sensorgram FIG. 11B; representative sensorgram, FIG. 11B
Method: By contrast, very little binding is observed with the same variants and mIL-18BP (right). FIG. 11B provides measurement of IL-18BP binding using representative surface plasmon resonance sensor grams between immobilized biotinylated mIL-18BP and the murine DR-IL-18 variants.
as §1

[15] = target: T4, Mouse IL-18Rα ectodomain (amino acids …); test: SPR (Biacore T100), receptor captured via biotin, IL-18 as analyte
Procedure, shortened: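 Biotinylated IL-18Rα or IL-18BP captured on a biotin CAP chip (Rmax ~50 RU or ~10 RU respectively), with serial dilutions of IL-18 variants as analyte. Run at 25° C in HBS-P+ (10 mM HEPES pH 7.4, 150 mM NaCl, 0.005% P20); guanidine/NaOH regeneration. KD from 1:1 Langmuir fit.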

[16] = target: T3, Mouse IL-18BP (amino acids 31-194), …; test: on-yeast binding isotherms; KD for IL-18BP over KD for IL-18Rα
Method: as §3

[17] = target: T3, Mouse IL-18BP (amino acids 31-194), …; test: on-yeast binding isotherms; KD ratio relative to WT IL-18
Method: as §3

[18] = target: T3, Mouse IL-18BP (amino acids 31-194), …; test: SPR; KD for IL-18BP over KD for IL-18Rα
Method: as §1

[19] = target: T3, Mouse IL-18BP (amino acids 31-194), …; test: SPR (Biacore T100), IL-18BP captured via biotin, IL-18 as analyte
Method: as §1

[20] = target: T3, Mouse IL-18BP (amino acids 31-194), …; test: SPR; KD ratio relative to WT IL-18
Method: as §1

[21] = target: T3, Mouse IL-18BP (amino acids 31-194), …; test: on-yeast binding isotherm (flow cytometry)
Procedure, shortened: (§4)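 Yeast displaying IL-18 variants were grown at 30 °C, then induced 1 day at 20 °C, with display checked by anti-myc-PE. Cells were stained on ice with biotinylated IL-18Rα (± IL-18Rβ) or biotinylated IL-18BP in PBS/0.5% BSA/2 mM EDTA. Binding was read by flow cytometry.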

[22] = target: T4, Mouse IL-18Rα ectodomain (amino acids …); test: on-yeast binding isotherm (flow cytometry)
Procedure, shortened: as §4

[23] = target: T3, Mouse IL-18BP (amino acids 31-194), …; test: on-yeast binding isotherm (flow cytometry): yeast-displayed murine IL-18 variant titrated with mIL-18BP, % max
Method: as §3

B1: SEQ ID NO: 37 (human DR-IL-18 variant hCS4) (ligand)
chain: RFGKLESKLSVIRNLNDQVLFIDQGNRPLFEDMTDSDCRDNAPRTIFIISTYRDSQPRGKAVTISVKCEKISTLSCENKIISFKEMNPPDNIKDTKSDIIFFQRNVPGHKYKMQFESSSYEGYFLACEKERDLFKLILKKEDELGDRSIMFTVQNED
notes: Engineered variant
Q: What does the source list for B1?
A: Kd [1]: 121 nM; Dissociation Constant Ratio normalized to WT IL-18 [2]: 64500; IL-18 BP:Rα Dissociation Constant Ratio [3]: 32200; Kd [4]: 183 nM; KD ratio IL-18BP/IL-18Rα [5]: 41.8; Dissociation Constant Ratio normalized to WT IL-18 [6]: > 424; EC50 [7]: > 1000 nM; Kd [8]: 4.38 nM; Kd [9]: 7.7 nM; KD ratio IL-18BP/IL-18Rα [10]: > 125

B2: Mouse Interleukin-18 (mature form), wild type (ligand)
chain: NFGRLHCTTAVIRNINDQVLFVDKRQPVFEDMTDIDQSASEPQTRLIIYMYKDSEVRGLAVTLSVKDSKMSTLSCKNKIISFEEMDPPENIDDIQSDLIFFQKRVPGHNKMEFESSLYEGHFLACQKEDDAFKLILKKKDENGDKSVMFTLTNLHQS
notes: also called mIL-18 WT; WT mIL-18
Q: Which “IL-18 BP:Rα Dissociation Constant Ratio” value [11] does the source give for B2 here?
A: 1

Q: And the Kd [12]?
A: 0.0011 nM

Q: What about the Kd [13] of the same binder?
A: 0.6 nM

Q: What about the Kd [14] of the same binder?
A: 0.0008 nM

Q: And the Kd [15]?
A: 0.6 nM

Q: And the “KD ratio IL-18BP/IL-18Rα” value [16]?
A: 0.188

Q: What about the “Dissociation Constant Ratio normalized to WT IL-18” value [17] of the same binder?
A: 1

Q: What about the “KD ratio IL-18BP/IL-18Rα” value [18] of the same binder?
A: 0.00183

Q: What about the Kd [19] of the same binder?
A: 0.0011 nM

Q: And the “Dissociation Constant Ratio normalized to WT IL-18” value [20]?
A: 1

Q: And the Kd [21]?
A: 2.13 nM

Q: What about the Kd [22] of the same binder?
A: 11.3 nM

Q: What about the “EC50 (read off the curve)” value [23] of the same binder?
A: ~20 nM
